Paper PMC3547835

Key:
[1] = target: RHDV VP60 P domain fragment (a.a. 228-579), JX/CHA/97 isolate strain (rabbit hemorrhagic disease virus (JX/CHA/97 isolate strain)); assay: crystal structure; P domain (a.a. 228-579) crystals, space group P212121, hanging drop at 289 K, 0.1 M sodium acetate, 1.1 M succinic acid pH 5.5, 1.0% PEG2000MME; 2.0 Å; dimer in the asymmetric unit
[2] = target: RHDV major capsid protein VP60 (in the native virion, HYD isolate strain) (rabbit hemorrhagic disease virus (HYD isolate strain)); assay: cryo-EM structure; RHDV virions purified from infected rabbit livers, TNE buffer, vitrified; FEI Titan Krios 300 keV; ~36,000 particles; 6.5 Å overall (FSC 0.5), 5.5 Å in the inner shell; pseudo-atomic model by docking of the S and P crystal structures and MDFF

Substance	stoichiometry N [1]	stoichiometry N [2]
RHDV VP60 P domain fragment (a.a. 228-579), JX/CHA/97 isolate strain (domain or fragment)	2	
RHDV major capsid protein VP60 (in the native virion, HYD isolate strain) (natural protein)		180
